# From patent publication US20260022175A1 (Chugai, published 2026)
# T1: human FcγRIIb extracellular domain (human, UniProt P31994 43-217)
# T1 construct: extracellular domain; also called hFcγR IIb
# T1 sequence (looked up): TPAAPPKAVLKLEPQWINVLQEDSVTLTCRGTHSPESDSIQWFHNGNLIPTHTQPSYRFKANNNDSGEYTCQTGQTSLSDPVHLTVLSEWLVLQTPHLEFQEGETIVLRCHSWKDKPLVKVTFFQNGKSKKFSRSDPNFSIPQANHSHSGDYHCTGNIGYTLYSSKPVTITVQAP
# T2: human FcγRIIa H extracellular domain (human, UniProt P12318 34-217)
# T2 construct: extracellular domain; also called hFcγR IIa H
# T2 sequence (looked up): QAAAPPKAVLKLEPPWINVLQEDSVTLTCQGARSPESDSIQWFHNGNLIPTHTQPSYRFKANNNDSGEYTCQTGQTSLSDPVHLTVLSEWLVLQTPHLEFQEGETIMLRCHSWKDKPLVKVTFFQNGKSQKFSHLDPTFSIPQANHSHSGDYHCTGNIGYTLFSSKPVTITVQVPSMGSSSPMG
# T3: human FcγRIIa R extracellular domain (human, UniProt P12318 34-217)
# T3 construct: extracellular domain; also called hFcγR IIa R
# T3 sequence (looked up): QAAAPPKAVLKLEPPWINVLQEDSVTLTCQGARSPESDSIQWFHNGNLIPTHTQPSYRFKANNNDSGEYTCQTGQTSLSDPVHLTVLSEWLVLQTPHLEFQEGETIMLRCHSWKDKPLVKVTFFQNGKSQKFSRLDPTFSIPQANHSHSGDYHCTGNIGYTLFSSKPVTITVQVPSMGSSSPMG
# T4: hFcγRIIaH on hFcγRIIaH-expressing Jurkat cells (human, UniProt P12318 34-317)
# T4 sequence (looked up): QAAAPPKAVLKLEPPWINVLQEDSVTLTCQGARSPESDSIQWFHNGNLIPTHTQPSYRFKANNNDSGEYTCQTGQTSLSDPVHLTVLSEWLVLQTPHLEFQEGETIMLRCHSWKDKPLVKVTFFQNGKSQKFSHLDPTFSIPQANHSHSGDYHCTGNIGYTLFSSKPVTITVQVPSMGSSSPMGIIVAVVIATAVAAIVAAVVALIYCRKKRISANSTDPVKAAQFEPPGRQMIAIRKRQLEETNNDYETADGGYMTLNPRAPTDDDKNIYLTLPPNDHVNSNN
# Tests used:
# [1] = molecular target: hFcγRIIIaV on hFcγRIIIaV-expressing Jurkat cells (human, UniProt P08637 17-254); assay: cell-based or functional assay
# hFcγRIIIaV on hFcγRIIIaV-expressing Jurkat cells, sequence (P08637 17-254, form in doubt): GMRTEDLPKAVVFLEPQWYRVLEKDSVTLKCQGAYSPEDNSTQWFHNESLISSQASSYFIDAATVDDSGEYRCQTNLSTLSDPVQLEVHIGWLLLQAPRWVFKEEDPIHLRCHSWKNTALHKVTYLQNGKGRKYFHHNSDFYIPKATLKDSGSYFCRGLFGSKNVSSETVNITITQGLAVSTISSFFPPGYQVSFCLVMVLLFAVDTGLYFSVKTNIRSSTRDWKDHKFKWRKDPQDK
# [2] = molecular target: T5, human C1q protein (Calbiochem) (human, UniProt P02745 23-245; P02746 28-253; P02747 29-245); assay: ELISA: antibody coated on the plate at the varied concentration, hC1q 3 µg/mL added, detected with HRP-conjugated anti-hC1q antibody, O.D (450-690nm)
# T5 construct: bought; also called hC1q
# T5 sequence (P02745 23-245 limits assumed, chain 1 of 3): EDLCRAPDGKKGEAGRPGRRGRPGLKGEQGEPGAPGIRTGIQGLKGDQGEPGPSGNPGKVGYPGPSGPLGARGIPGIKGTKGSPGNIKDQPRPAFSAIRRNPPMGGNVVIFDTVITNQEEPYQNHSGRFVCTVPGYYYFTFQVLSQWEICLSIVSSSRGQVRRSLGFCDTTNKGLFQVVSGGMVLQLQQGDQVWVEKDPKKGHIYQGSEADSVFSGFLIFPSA
# T5 sequence (P02746 28-253 limits assumed, chain 2 of 3): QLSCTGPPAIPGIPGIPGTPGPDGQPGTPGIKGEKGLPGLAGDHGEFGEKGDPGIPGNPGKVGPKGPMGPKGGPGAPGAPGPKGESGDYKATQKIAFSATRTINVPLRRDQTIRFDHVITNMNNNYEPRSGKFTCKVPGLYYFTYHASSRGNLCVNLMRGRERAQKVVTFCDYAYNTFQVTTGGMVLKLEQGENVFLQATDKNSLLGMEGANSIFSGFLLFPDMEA
# T5 sequence (P02747 29-245 limits assumed, chain 3 of 3): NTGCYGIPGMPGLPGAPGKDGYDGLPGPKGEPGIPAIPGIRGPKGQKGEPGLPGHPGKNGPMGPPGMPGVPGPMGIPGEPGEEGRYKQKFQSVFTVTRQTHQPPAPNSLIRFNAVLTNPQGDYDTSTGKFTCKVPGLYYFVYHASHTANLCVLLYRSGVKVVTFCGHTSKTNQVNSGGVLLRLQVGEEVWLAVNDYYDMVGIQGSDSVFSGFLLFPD
# Description: The antigen used was a human C1q protein (hC1q).
# First, a 96-well maxisorp plate (Thermo fisher) was coated at 4° C. overnight with 50 μL of solutions containing each antibody prepared at 30, 10, 3, 1, 0.3, 0.1, and 0.03 μg/mL in PBS. Each well of the plate was washed with Wash buffer to remove the antibody not bound to the plate, and then the wells were blocked with 200 μL of Blocking/dilution Buffer at room temperature for 2 hours or longer. After the Blocking/dilution Buffer was removed from each well, hC1q (Calbiochem) prepared such that the final concentration was 3 μg/mL in Blocking/dilution Buffer was added at 50 μL per well. The plate was then allowed to stand at room temperature for 1 hour to allow hC1q to bind to the antibody within each well. After washing with Wash Buffer, 50 μL of an HRP-conjugated anti-hC1q antibody (AbDSerotec) diluted with Blocking/dilution Buffer was added to each well, and the plate was incubated while standing for 1 hour. After washing with Wash Buffer, TMB single solution (Invitrogen) was added. The color development reaction of the solution in each well was stopped by addition of Stop Buffer, and then the developed color was measured by absorbance at 450 nm and 690 nm.
# [3] = molecular target: T1, human FcγRIIb extracellular domain; assay: SPR Biacore 8K+, antibody captured, FcγR as analyte, steady state affinity model
# [4] = molecular target: T6, human FcγRIa extracellular domain (human, UniProt P12314 16-292); assay: SPR Biacore 8K+, antibody captured, FcγR as analyte, 1:1 Langmuir model;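 also: antibodies captured on a streptavidin chip through a biotinylated anti-human Fab kappa reagent, with FcγR extracellular domains injected in pH 7.4 phosphate buffer at 25 °C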
# T6 construct: extracellular domain; also called hFcγR Ia; hFcγRIa
# T6 sequence (P12314 16-292): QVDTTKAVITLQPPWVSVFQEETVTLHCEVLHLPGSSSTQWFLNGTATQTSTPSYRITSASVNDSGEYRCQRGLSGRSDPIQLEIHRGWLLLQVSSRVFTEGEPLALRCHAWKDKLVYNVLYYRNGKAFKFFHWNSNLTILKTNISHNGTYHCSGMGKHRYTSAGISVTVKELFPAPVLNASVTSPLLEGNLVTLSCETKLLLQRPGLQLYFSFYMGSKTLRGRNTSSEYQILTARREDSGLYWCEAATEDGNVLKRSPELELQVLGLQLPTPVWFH
# [5] = molecular target: T2, human FcγRIIa H extracellular domain; assay: as above
# [6] = molecular target: T7, human FcγRIIIa V extracellular domain (human, UniProt P08637 17-208); assay: as above
# T7 construct: extracellular domain; also called hFcγR IIIa V
# T7 sequence (P08637 17-208 F176V limits assumed): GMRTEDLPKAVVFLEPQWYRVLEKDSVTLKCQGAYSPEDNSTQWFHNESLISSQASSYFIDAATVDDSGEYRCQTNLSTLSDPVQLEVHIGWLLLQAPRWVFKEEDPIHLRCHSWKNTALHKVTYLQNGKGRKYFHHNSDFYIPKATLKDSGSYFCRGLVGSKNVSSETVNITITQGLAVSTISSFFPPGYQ
# [7] = molecular target: T3, human FcγRIIa R extracellular domain; assay: as above
# [8] = molecular target: T8, human FcγRIIIa F extracellular domain (human, UniProt P08637 17-208); assay: as above
# T8 construct: extracellular domain; also called hFcγR IIIa F
# T8 sequence (P08637 17-208): as the sequence (P08637 17-208 F176V limits assumed) above, with V160F counted along it
# [9] = molecular target: T2, human FcγRIIa H extracellular domain; assay: SPR Biacore 8K+; KD for FcγRIIb divided by KD for this FcγR;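 also: antibodies captured on an anti-human Fab kappa SA chip with soluble human FcγR ectodomains flowed over, FcγRIIb KD from steady-state fit, other FcγR KD from Langmuir model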
# Description: (§1) The interaction between the produced antibodies and human FcγRs was analyzed using Biacore 8K+ by the method below. For the running buffer, 50 mM Na-Phosphate, 150 mM NaCl, and 0.05% Tween20 (pH 7.4) was used, and measurement was performed at 25° C. The sensor chip used was a Series S SA chip (GE Healthcare) onto which CaptureSelect Human Fab-kappa Kinetics Biotin Conjugate (Thermo Fisher Scientific) was immobilized. An antibody of interest was captured onto this chip, and each FcγR diluted with the running buffer was allowed to interact with it. The chip was regenerated using 10 mM Glycine-HCl (pH 1.5), and repeatedly used to capture antibodies and perform measurement. The dissociation constants KD (mol/L) of each antibody for FcγRs were calculated using Biacore Insight Evaluation Software, with a steady state affinity model for the dissociation constant for FcγRIIb and a 1:1 Langmuir binding model for the dissociation constants for the other FcγRs (Table 48).
# [10] = molecular target: T7, human FcγRIIIa V extracellular domain; assay: as above
# Description: as §1
# [11] = molecular target: T3, human FcγRIIa R extracellular domain; assay: as above
# Description: as §1
# [12] = molecular target: T8, human FcγRIIIa F extracellular domain; assay: as above
# Description: as §1
# [13] = molecular target: T4, hFcγRIIaH on hFcγRIIaH-expressing …; assay: cell-based or functional assay
# [14] = molecular target: T6, human FcγRIa extracellular domain; assay: SPR Biacore 8K+; KD of G1d divided by KD of this antibody;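 also: antibodies captured on an anti-Fab-kappa streptavidin chip, soluble FcγR ectodomains flowed over, KD by steady-state fit for FcγRIIb and Langmuir kinetic model for the other receptors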
# [15] = molecular target: T2, human FcγRIIa H extracellular domain; assay: as above
# [16] = molecular target: T7, human FcγRIIIa V extracellular domain; assay: as above
# [17] = molecular target: T3, human FcγRIIa R extracellular domain; assay: as above
# [18] = molecular target: T8, human FcγRIIIa F extracellular domain; assay: as above
# [19] = molecular target: T1, human FcγRIIb extracellular domain; assay: as above
Binder,"EC50 value (hFcγRIIIaV ADCC Reporter Bioassay, Hepa1-6/hEREG target cells) [1] [µg/mL]",binding result [2],Kd [3] [nM],Kd [4] [nM],Kd [5] [nM],Kd [6] [nM],Kd [7] [nM],Kd [8] [nM],A/I ratio (KD for FcγRIIb divided by KD for each FcγR) [9],A/I ratio (KD for FcγRIIb divided by KD for each FcγR) [10],A/I ratio (KD for FcγRIIb divided by KD for each FcγR) [11],A/I ratio (KD for FcγRIIb divided by KD for each FcγR) [12],"EC50 value (hFcγRIIaH ADCP Reporter Bioassay, Hepa1-6/hEREG target cells) [13] [µg/mL]",Relative value to KD between G1d and hFcgRs [14],Relative value to KD between G1d and hFcgRs [15],Relative value to KD between G1d and hFcgRs [16],Relative value to KD between G1d and hFcgRs [17],Relative value to KD between G1d and hFcgRs [18],Relative value to KD between G1d and hFcgRs [19]
"H240-Kn443/L73-k0//H240-Hl408/L73-k0 (antibody, human IgG1, kappa, also called EGL-ART3; ART3) heavy 1: QDQLVQSGAEVKKPGASVKVSCKASGFNIKDTYIQWVRQAPGQGLEWMGRIDPLRKQTKYREKFEGRVTITADTSTNTAYMELSSLRSEDTAVYYCVRSGREFDYWGQGTLVTVSSASTKGPSVFPLAPSSKSTSGGTAALGCLVKDYFPEPVTVSWNSGALTSGVHTFPAVLQSSGLYSLSSVVTVPSSSLGTQTYICNVNHKPSNTKVDKKVEPKSCDKTHTCPPCPAPEFQWGPMVFLFPPKPKDTLMISRTPEVTCVVVDVSDEEPEVKFNWYVDGVEVHNAKTKPREEQYNATYRVVSVLTVLHQDWLNGKEYKCKVSNDALPAPIEKTISKAKGQPREPQVCTLPPSRDELTKNQVSLWCLVKGFYPSDIAVEWESNGQPENNYKTTPPVLDSDGSFFLYSKLTVDKSRWQQGNVFSCSVMHEALHNHYTQKSLSLSP heavy 2: QDQLVQSGAEVKKPGASVKVSCKASGFNIKDTYIQWVRQAPGQGLEWMGRIDPLRKQTKYREKFEGRVTITADTSTNTAYMELSSLRSEDTAVYYCVRSGREFDYWGQGTLVTVSSASTKGPSVFPLAPSSKSTSGGTAALGCLVKDYFPEPVTVSWNSGALTSGVHTFPAVLQSSGLYSLSSVVTVPSSSLGTQTYICNVNHKPSNTKVDKKVEPKSCDKTHTCPPCPAPELLAGPSVFLFPPKPKDTLMISRTPEVTCVVVDVSHEEPEVKFNWYVDGVEVHNAKTKPREEQYNATYRVVSVLTVLHQDWLNGKEYKCKVSNDALPAPIEETISKAKGQPREPQVYTLPPSRCELTKNQVSLSCAVKGFYPSDIAVEWESNGQPENNYKTTPPVLDSDGSFFLVSKLTVDKSRWQQGNVFSCSVMHEALHNHYTQKSLSLSP light: DIQMTQSPSSLSASVGDRVTITCRASQDIHKYIAWYQQKPGQAPRLLIQYTSTLQPGVPSRFSGSGSGTDYTFTISSLQPEDIATYYCLQYEQLRTFGGGTKVEIKRTVAAPSVFIFPPSDEQLKSGTASVVCLLNNFYPREAKVQWKVDNALQSGNSQESVTEQDSKDSTYSLSSTLTLSKADYEKHKVYACEVTHQGLSSPVTKSFNRGEC",0.00153,binds,6330,0.172,35,3.16,121,16,181,2000,52.4,396,0.0158,0.5,32.1,114,13.7,185,1.6
"H240-G1d/L73-k0 (antibody, human IgG1, kappa, Anti-human Epiregulin antibody with the human IgG1 constant region G1d (C-terminal Gly and Lys deleted); also called EGL-G1d) heavy: not shown light: DIQMTQSPSSLSASVGDRVTITCRASQDIHKYIAWYQQKPGQAPRLLIQYTSTLQPGVPSRFSGSGSGTDYTFTISSLQPEDIATYYCLQYEQLRTFGGGTKVEIKRTVAAPSVFIFPPSDEQLKSGTASVVCLLNNFYPREAKVQWKVDNALQSGNSQESVTEQDSKDSTYSLSSTLTLSKADYEKHKVYACEVTHQGLSSPVTKSFNRGEC",0.0463,binds,10100,0.0901,1120,358,1660,2960,8.9,28.1,6.1,3.4,,1,1,1,1,1,1
"H240-Kn461/L73-k0//H240-Hl443/L73-k0 (antibody, human IgG1, kappa, also called EGL-ART8; ART8) heavy 1: QDQLVQSGAEVKKPGASVKVSCKASGFNIKDTYIQWVRQAPGQGLEWMGRIDPLRKQTKYREKFEGRVTITADTSTNTAYMELSSLRSEDTAVYYCVRSGREFDYWGQGTLVTVSSASTKGPSVFPLAPSSKSTSGGTAALGCLVKDYFPEPVTVSWNSGALTSGVHTFPAVLQSSGLYSLSSVVTVPSSSLGTQTYICNVNHKPSNTKVDKKVEPKSCDKTHTCPPCPAPEFQWGPMVFLFPPKPKDVLMISRTPEVTCVVVDVSDEEPEVKFNWYVDGVEVHNAKTKPREEQYNATYRVVSVLPVLHQDWLNGKEYKCKVSNDALPAPEEKTISKAKGQPREPQVCTLPPSRDELTKNQVSLWCLVKGFYPSDIAVEWESNGQPENNYKTTPPVLDSDGSFFLYSKLTVDKSRWQQGNVFSCSVMHEALHNHYTQKSLSLSP heavy 2: QDQLVQSGAEVKKPGASVKVSCKASGFNIKDTYIQWVRQAPGQGLEWMGRIDPLRKQTKYREKFEGRVTITADTSTNTAYMELSSLRSEDTAVYYCVRSGREFDYWGQGTLVTVSSASTKGPSVFPLAPSSKSTSGGTAALGCLVKDYFPEPVTVSWNSGALTSGVHTFPAVLQSSGLYSLSSVVTVPSSSLGTQTYICNVNHKPSNTKVDKKVEPKSCDKTHTCPPCPAPELLAGPSVFLFPPKPKDVLMISRTPEVTCVVVDVSHEEPEVKFNWYVDGVEVHNAKTKPREEQYNATYRVVSVLPVLHQDWLNGKEYKCKVSNDALPAPEEETISKAKGQPREPQVYTLPPSRCELTKNQVSLSCAVKGFYPSDIAVEWESNGQPENNYKTTPPVLDSDGSFFLVSKLTVDKSRWQQGNVFSCSVMHEALHNHYTQKSLSLSP light: DIQMTQSPSSLSASVGDRVTITCRASQDIHKYIAWYQQKPGQAPRLLIQYTSTLQPGVPSRFSGSGSGTDYTFTISSLQPEDIATYYCLQYEQLRTFGGGTKVEIKRTVAAPSVFIFPPSDEQLKSGTASVVCLLNNFYPREAKVQWKVDNALQSGNSQESVTEQDSKDSTYSLSSTLTLSKADYEKHKVYACEVTHQGLSSPVTKSFNRGEC",0.00107,binds,3530,0.028,74.9,0.51,126,1.5,47.2,6850,28.1,2350,0.0171,3.2,15,695,13.2,1970,2.8
